Literature values as cited in US7708978B2, “Targeted hydrophilic polymer, binders with interferon and medical composite comprising above binders” (Beijing Jiankai Technology Co., Ltd., priority 2002, dated 2010).

Conditions: in vivo

## interferon α
  circulation half-life: 4 to 8 h
